Source: patent US7148329 (KATHOLIEKE UNIVERSITEIT NIJMEGEN, dated 2006)

How the values were obtained:
[1] = target: DC-Specific ICAM-3 Grabbing Non-integrin (DC-SIGN) (human) (UniProt Q9NNX6); test: flow cytometry on DC day 7; meaning of the grade from the table's footnote
[2] = target: DC-Specific ICAM-3 Grabbing Non-integrin (DC-SIGN) (human) (UniProt Q9NNX6); test: cell-based or functional assay
[3] = target: DC-Specific ICAM-3 Grabbing Non-integrin (DC-SIGN) (human) (UniProt Q9NNX6); test: flow cytometry on COS7 cells transfected with DC-SIGN cDNA
[4] = target: T1, DC-Specific ICAM-3 Grabbing Non-integrin (DC-SIGN) (human, UniProt Q9NNX6 1-404); test: binding to K562 transfectants (FIG. 8)
T1 construct: Type II membrane protein of 404 aa, on monocyte-derived DC or on COS7 cells transfected with pRc/CMV-DC-SIGN; in immunoprecipitation and pull-down it came from DC lysate; also called C-type lectin on dendritic cells
T1 sequence: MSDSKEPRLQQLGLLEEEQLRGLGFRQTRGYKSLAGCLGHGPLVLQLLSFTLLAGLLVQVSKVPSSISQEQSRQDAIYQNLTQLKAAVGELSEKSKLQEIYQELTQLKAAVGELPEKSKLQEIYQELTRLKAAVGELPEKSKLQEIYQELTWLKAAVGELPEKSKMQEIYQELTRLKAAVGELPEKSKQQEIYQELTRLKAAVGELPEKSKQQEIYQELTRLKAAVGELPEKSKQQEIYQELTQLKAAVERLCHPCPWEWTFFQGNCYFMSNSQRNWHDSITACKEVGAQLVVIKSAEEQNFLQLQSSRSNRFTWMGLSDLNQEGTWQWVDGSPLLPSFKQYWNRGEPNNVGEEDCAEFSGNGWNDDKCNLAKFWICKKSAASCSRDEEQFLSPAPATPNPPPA

Molecule: AZN-D1 (antibody)
- mean fluorescence [1]: > 400
- DC-T cell clustering (percentage of DC which have bound fluorescent T cells) [2]: 50%
- HIV-1 replication (p24 Gag) in DC-T cell co-culture, DC pre-incubated with antibody before the HIV-1 pulse [2]: > 75%
- T-lymphocyte proliferation induced by allogeneic DC ([3H]methyl-thymidine uptake) [2]: > 75%
- percent of transfected cells stained [3]: 30%

Molecule: AZN-D2 (antibody)
- DC-T cell clustering (percentage of DC which have bound fluorescent T cells) [2]: 50%
- HIV-1 replication (p24 Gag) in DC-T cell co-culture, DC pre-incubated with antibody before the HIV-1 pulse [2]: > 75%
- T-lymphocyte proliferation induced by allogeneic DC ([3H]methyl-thymidine uptake) [2]: > 75%

B1: ICAM-2 expressed on K562 cells (ligand, UniProt P13598 25-275, looked up)
chain: KVFEVHVRPKKLAVEPKGSLEVNCSTTCNQPEVGGLETSLDKILLDEQAQWKHYLVSNISHDTVLQCHFTCSGKQESMNSNVSVYQPPRQVILTLQPTLVAVGKSFTIECRVPTVEPLDSLTLFLFRGNETLHYETFGKAAPAPQEATATFNSTADREDGHRNFSCLAVLDLMSRGGNIFHKHSAPKMLEIYEPVSDSQMVIIVTVVSVLLSLFVTSVLLCFIFGQHLRQQRMGTYGVRAAWRRLPQAFRP
notes: whole, on cells
- binding result [4]: binds
